Positions count from the first letter of the chain named.
T1: human GIP receptor (human) (UniProt P48546)
T1 sequence (looked up): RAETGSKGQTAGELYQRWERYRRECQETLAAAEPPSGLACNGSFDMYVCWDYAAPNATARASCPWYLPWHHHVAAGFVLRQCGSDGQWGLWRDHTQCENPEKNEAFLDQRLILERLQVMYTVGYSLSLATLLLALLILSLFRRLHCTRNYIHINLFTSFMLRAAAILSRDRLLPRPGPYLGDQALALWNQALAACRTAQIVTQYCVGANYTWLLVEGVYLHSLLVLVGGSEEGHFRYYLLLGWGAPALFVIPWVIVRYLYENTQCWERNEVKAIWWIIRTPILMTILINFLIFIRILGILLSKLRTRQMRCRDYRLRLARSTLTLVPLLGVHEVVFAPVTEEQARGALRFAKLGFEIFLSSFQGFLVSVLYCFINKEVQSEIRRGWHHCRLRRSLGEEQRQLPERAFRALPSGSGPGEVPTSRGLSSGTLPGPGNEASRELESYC

B1: Example 1156 (peptide)
chain: YXQGTXTSDXXIXLDXKAQXEFIEXLVEGGPSSGAPPPESE
modifications: not fully specified; acylated lysine AEEA-γGlu-C18 diacid; non-natural residues; C-terminal amide; synthetic construct; SITE 2: note = 2-Aminoisobutyric Acid; SITE 6: note = alpha-methyl-2-fluoro-L-phenylalanine; SITE 10: note = 3-(4-Pyridyl)-L-alanine; SITE 11: note = alpha-methyl-L-serine; SITE 13: note = alpha-methyl-leucine; SITE 16: note = L-ornithine; SITE 17: note = Lysine is chemically mo
B2: Example 1147 (peptide)
chain: B1 chain with V27I, A35E
modifications: non-natural residues; K acylated AEEA-γGlu-C18 diacid; C-amide; synthetic construct; SITE 2: note = 2-Aminoisobutyric Acid; SITE 6: note = alpha-methyl-2-fluoro-L-phenylalanine; SITE 10: note = 3-(4-Pyridyl)-L-alanine; SITE 11: note = alpha-methyl-L-serine; SITE 13: note = alpha-methyl-leucine; SITE 16: note = L-ornithine; SITE 17: note = Lysine is chemically mo
B3: Example 1159 (peptide)
chain: B1 chain with A35E, S40G
modifications: Aib, αMeF(2F), 4Pal, Me4Pal, Orn; lipidated Lys; C-terminal amide; synthetic construct; SITE 2: note = 2-Aminoisobutyric Acid; SITE 6: note = alpha-methyl-2-fluoro-L-phenylalanine; SITE 10: note = 3-(4-Pyridyl)-L-alanine; SITE 11: note = alpha-methyl-L-serine; SITE 13: note = alpha-methyl-leucine; SITE 16: note = L-ornithine; SITE 17: note = Lysine is chemically mo
B4: Example 1157 (peptide)
chain: B1 chain with A35E
modifications: not fully specified; non-natural residues; lipidated Lys; C-terminal amide; synthetic construct; SITE 2: note = 2-Aminoisobutyric Acid; SITE 6: note = alpha-methyl-2-fluoro-L-phenylalanine; SITE 10: note = 3-(4-Pyridyl)-L-alanine; SITE 11: note = alpha-methyl-L-serine; SITE 13: note = alpha-methyl-leucine; SITE 16: note = L-ornithine; SITE 17: note = Lysine is chemically mo
B5: Example 1145 (peptide)
chain: B1 chain with V27I, A35E, E39G, S40G
modifications: non-natural residues; lipidated Lys AEEA-γGlu-C18 diacid; C-term amide; synthetic construct; SITE 2: note = 2-Aminoisobutyric Acid; SITE 6: note = alpha-methyl-2-fluoro-L-phenylalanine; SITE 10: note = 3-(4-Pyridyl)-L-alanine; SITE 11: note = alpha-methyl-L-serine; SITE 13: note = alpha-methyl-leucine; SITE 16: note = L-ornithine; SITE 17: note = Lysine is chemically mo
B6: Example 1154 (peptide)
chain: B1 chain with E39G, S40G
modifications: not fully specified; non-natural residues; AEEA-γGlu-C18 diacid acyl; C-terminal amide; synthetic construct; SITE 2: note = 2-Aminoisobutyric Acid; SITE 6: note = alpha-methyl-2-fluoro-L-phenylalanine …; SITE 10: note = 3-(4-Pyridyl)-L-alanine; SITE 11: note = alpha-methyl-L-serine; SITE 13: note = alpha-methyl-leucine; SITE 16: note = L-ornithine; SITE 17: note = Lysine is chemically mo
B7: Example 1151 (peptide)
chain: B1 chain with V27I, A35E, E39S, S40G
modifications: not fully specified; non-natural residues; acylated Lys; C-terminal amide; synthetic construct; SITE 2: note = 2-Aminoisobutyric Acid; SITE 6: note = alpha-methyl-2-fluoro-L-phenylalanine; SITE 10: note = 3-(4-Pyridyl)-L-alanine; SITE 11: note = alpha-methyl-L-serine; SITE 13: note = alpha-methyl-leucine; SITE 16: note = L-ornithine; SITE 17: note = Lysine is chemically mo
B8: Example 1149 (peptide)
chain: B1 chain with V27I, A35E, S40G
modifications: non-natural residues; AEEA-γGlu-C18 diacid on Lys; C-terminal amide; synthetic construct; SITE 2: note = 2-Aminoisobutyric Acid; SITE 6: note = alpha-methyl-2-fluoro-L-phenylalanine; SITE 10: note = 3-(4-Pyridyl)-L-alanine; SITE 11: note = alpha-methyl-L-serine; SITE 13: note = alpha-methyl-leucine; SITE 16: note = L-ornithine; SITE 17: note = Lysine is chemically mo
B9: Example 1158 (peptide)
chain: B1 chain with S40G
modifications: not fully specified; non-natural residues, lysine acylation, C-terminal amide; synthetic construct; SITE 2: note = 2-Aminoisobutyric Acid; SITE 6: note = alpha-methyl-2-fluoro-L-phenylalanine; SITE 10: note = 3-(4-Pyridyl)-L-alanine; SITE 11: note = alpha-methyl-L-serine; SITE 13: note = alpha-methyl-leucine; SITE 16: note = L-ornithine; SITE 17: note = Lysine is chemically mo
B10: Example 1153 (peptide)
chain: B1 chain with A35E, E39T, S40G
modifications: not fully specified; Aib, αMeF(2F), 4Pal, αMeS, Orn, Me4Pal, αMeY; acylated; amide; synthetic construct; SITE 2: note = 2-Aminoisobutyric Acid; SITE 6: note = alpha-methyl-2-fluoro-L-phenylalanine; SITE 10: note = 3-(4-Pyridyl)-L-alanine; SITE 11: note = alpha-methyl-L-serine; SITE 13: note = alpha-methyl-leucine; SITE 16: note = L-ornithine; SITE 17: note = Lysine is chemically mo
B11: Example 1161 (peptide)
chain: B1 chain with A35E, E39S, S40G
modifications: Aib, αMeF(2F), 4Pal, αMeS, αMeL, Orn, Me4Pal, αMeY; lipidated Lys; amide; synthetic construct; SITE 2: note = 2-Aminoisobutyric Acid; SITE 6: note = alpha-methyl-2-fluoro-L-phenylalanine; SITE 10: note = 3-(4-Pyridyl)-L-alanine; SITE 11: note = alpha-methyl-L-serine; SITE 13: note = alpha-methyl-leucine; SITE 16: note = L-ornithine; SITE 17: note = Lysine is chemically mo
B12: Example 1160 (peptide)
chain: B1 chain with E39S, S40G
modifications: C-terminal amide; lysine acylated with (γ-Glu)2-C18 diacid; synthetic construct; SITE 2: note = 2-Aminoisobutyric Acid; SITE 6: note = alpha-methyl-2-fluoro-L-phenylalanine; SITE 10: note = 3-(4-Pyridyl)-L-alanine; SITE 11: note = alpha-methyl-L-serine; SITE 13: note = alpha-methyl-leucine; SITE 16: note = L-ornithine; SITE 17: note = Lysine is chemically mo
B13: Example 1155 (peptide)
chain: B1 chain with A35E, E39G, S40G
modifications: not fully specified; Lys acylated AEEA-γGlu-C18 diacid; non-natural residues; C-amide; synthetic construct; SITE 2: note = 2-Aminoisobutyric Acid; SITE 6: note = alpha-methyl-2-fluoro-L-phenylalanine; SITE 10: note = 3-(4-Pyridyl)-L-alanine; SITE 11: note = alpha-methyl-L-serine; SITE 13: note = alpha-methyl-leucine; SITE 16: note = L-ornithine; SITE 17: note = Lysine is chemically mo
B14: Example 1152 (peptide)
chain: B1 chain with E39T, S40G
modifications: not fully specified; acylated lysine AEEA-γGlu-C18 diacid; non-natural residues; C-terminal amide; synthetic construct; SITE 2: note = 2-Aminoisobutyric Acid; SITE 6: note = alpha-methyl-2-fluoro-L-phenylalanine; SITE 10: note = 3-(4-Pyridyl)-L-alanine; SITE 11: note = alpha-methyl-L-serine; SITE 13: note = alpha-methyl-leucine; SITE 16: note = L-ornithine; SITE 17: note = Lysine is chemically mo

target: hGLP-1R (Homo sapiens, UniProt P43220); assay: cell-based or functional assay
Sequence (P43220 24-463): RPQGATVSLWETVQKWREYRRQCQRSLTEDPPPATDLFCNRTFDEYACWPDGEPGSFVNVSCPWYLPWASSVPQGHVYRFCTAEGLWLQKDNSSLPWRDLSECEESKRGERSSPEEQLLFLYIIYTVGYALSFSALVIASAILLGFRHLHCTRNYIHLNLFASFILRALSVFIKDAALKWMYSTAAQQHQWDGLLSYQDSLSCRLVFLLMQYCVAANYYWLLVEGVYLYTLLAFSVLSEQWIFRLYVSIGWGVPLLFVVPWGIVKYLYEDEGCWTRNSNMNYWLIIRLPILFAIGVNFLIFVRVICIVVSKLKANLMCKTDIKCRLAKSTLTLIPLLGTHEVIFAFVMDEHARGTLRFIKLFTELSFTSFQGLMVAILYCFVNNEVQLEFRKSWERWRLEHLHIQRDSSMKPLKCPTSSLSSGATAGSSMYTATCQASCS

Binder	Relative cAMP EC50	cAMP Rel EC50 (in the presence of 1% HSA)	cAMP Rel EC50 (1% HSA)
B1	0.444 nM	47.1 nM	–
B2	0.347 nM	–	45.4 nM
B3	0.45 nM	64.1 nM	–
B4	0.408 nM	57.5 nM	–
B5	0.313 nM	–	39.1 nM
B6	0.344 nM	44.5 nM	–
B7	0.262 nM	–	40 nM
B8	0.352 nM	–	52.2 nM
B9	0.419 nM	46.8 nM	–
B10	0.33 nM	52.7 nM	–
B11	0.39 nM	35.5 nM	–
B12	0.365 nM	31.2 nM	–
B13	0.434 nM	44.4 nM	–
B14	0.371 nM	43.8 nM	–

target: human glucagon receptor (human) (UniProt P47871); assay: cell-based or functional assay
Sequence (P47871 26-477): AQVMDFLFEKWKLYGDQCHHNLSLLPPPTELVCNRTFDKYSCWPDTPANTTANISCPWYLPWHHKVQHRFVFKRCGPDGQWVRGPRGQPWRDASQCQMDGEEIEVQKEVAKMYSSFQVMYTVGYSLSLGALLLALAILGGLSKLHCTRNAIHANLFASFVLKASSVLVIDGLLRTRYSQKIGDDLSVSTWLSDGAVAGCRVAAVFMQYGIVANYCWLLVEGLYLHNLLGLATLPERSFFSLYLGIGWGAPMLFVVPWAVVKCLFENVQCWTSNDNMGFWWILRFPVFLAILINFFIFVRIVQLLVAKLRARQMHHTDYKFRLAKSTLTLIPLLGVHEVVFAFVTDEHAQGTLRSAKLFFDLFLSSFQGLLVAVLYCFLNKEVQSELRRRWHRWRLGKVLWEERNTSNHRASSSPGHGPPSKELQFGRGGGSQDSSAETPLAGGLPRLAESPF

Binder	Relative cAMP EC50	cAMP Rel EC50 (in the presence of 1% HSA)	cAMP Rel EC50 (1% HSA)
B1	2.94 nM	337 nM	–
B2	1.17 nM	–	167 nM
B3	1.86 nM	238 nM	–
B4	2.04 nM	384 nM	–
B5	1.07 nM	–	148 nM
B6	6.42 nM	320 nM	–
B7	1.31 nM	–	206 nM
B8	1.37 nM	–	184 nM
B9	2.19 nM	301 nM	–
B10	2.69 nM	215 nM	–
B11	2.19 nM	217 nM	–
B12	2.41 nM	183 nM	–
B13	1.83 nM	288 nM	–
B14	2.32 nM	287 nM	–

target: T1, human GIP receptor (human); assay: cell-based or functional assay

Binder	Relative cAMP EC50	cAMP Rel EC50 (in the presence of 1% HSA)	cAMP Rel EC50 (1% HSA)
B1	0.0127 nM	1.33 nM	–
B2	0.00753 nM	–	0.831 nM
B3	0.0118 nM	1.29 nM	–
B4	0.0124 nM	1.28 nM	–
B5	0.00689 nM	–	0.848 nM
B6	0.00879 nM	0.954 nM	–
B7	0.00339 nM	–	0.287 nM
B8	0.00804 nM	–	0.96 nM
B9	0.0126 nM	1.42 nM	–
B10	0.0109 nM	1.39 nM	–
B11	0.00973 nM	0.733 nM	–
B12	0.00773 nM	0.598 nM	–
B13	0.00917 nM	0.888 nM	–
B14	0.0101 nM	1.21 nM	–

From US20240270821A1, “GIP/GLP1/GCG TRI-RECEPTOR AGONISTS AND USES THEREOF” (priority 2023, published 2024)
